Assays:
Test in all cases: filter binding
[1] = molecular target: POT1;TPP1-L23 mutant (Homo sapiens;Homo sapiens, UniProt Q9NUX5;Q96AP0 1-634;3-248, |D62A;G63A;T64A;H65A)
[2] = molecular target: POT1;TPP1 (WT) (Homo sapiens;Homo sapiens, UniProt Q9NUX5;Q96AP0 1-634;3-248, |)
[3] = molecular target: POT1;TPP1-L45 mutant (Homo sapiens;Homo sapiens, UniProt Q9NUX5;Q96AP0 1-634;3-105+=AAAAA+116-248, |internal_change)
[4] = molecular target: T1, POT1 (Homo sapiens, UniProt Q9NUX5 1-634)
T1 sequence: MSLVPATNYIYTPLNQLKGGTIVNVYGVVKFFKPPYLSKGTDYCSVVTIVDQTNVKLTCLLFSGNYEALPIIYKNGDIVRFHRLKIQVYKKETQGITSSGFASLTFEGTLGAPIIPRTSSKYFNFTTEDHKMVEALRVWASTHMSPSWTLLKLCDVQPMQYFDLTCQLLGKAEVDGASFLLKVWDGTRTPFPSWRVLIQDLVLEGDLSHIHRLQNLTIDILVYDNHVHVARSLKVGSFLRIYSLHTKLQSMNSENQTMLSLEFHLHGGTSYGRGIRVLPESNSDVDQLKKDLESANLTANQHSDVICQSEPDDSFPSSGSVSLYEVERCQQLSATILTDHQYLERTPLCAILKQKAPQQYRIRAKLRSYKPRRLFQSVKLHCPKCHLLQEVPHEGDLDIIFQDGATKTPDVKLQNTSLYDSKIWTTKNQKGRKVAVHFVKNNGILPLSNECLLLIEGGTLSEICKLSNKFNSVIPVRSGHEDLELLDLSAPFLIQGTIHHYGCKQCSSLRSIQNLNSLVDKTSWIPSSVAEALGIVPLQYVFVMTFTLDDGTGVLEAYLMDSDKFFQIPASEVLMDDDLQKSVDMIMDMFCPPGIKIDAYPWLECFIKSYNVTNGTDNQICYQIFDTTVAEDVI

Work on GGTTAGGGTTAG (ssDNA) [hT12wt, d(GGTTAG)2] yielded a Kd [1] of 27.3 ± 4.2 nM, a Kd [2] of 3.8 ± 0.5 nM and a Kd [3] of 13.7 ± 5.5 nM. The Kd [4] was 38.2 ± 4.8 nM.
